Results reported in FireProtDB (doi:10.1021/bi00185a025).

B1: Chemotaxis protein CheY, P0AE67 (parent)
chain: MADKELKFLVVDDFSTMRRIVRNLLKELGFNNVEEAEDGVDALNKLQAGGYGFVISDWNMPNMDGLELLKTIRADGAMSALPVLMVTAEAKKENIIAAAQAGASGYVVKPFTAATLEEKLNKIFEKLGM

Variants of: B1
Settings: Escherichia coli (strain K12); pH 7; 25 °C; Urea; CD; Sodium phosphate 5 mM; reversible: yes; structure 1CEY; whole UniProt chain shown

Variant	ddG of mutation (higher = less stable) [kcal/mol]	denaturant m value [kcal/mol/M]	denaturant midpoint (higher = more stable) [M]	unfolding free energy [kcal/mol]
MADKELKFLVVDDNSTMRRIVRNLLKELGFNNVEEAEDGVDALNKLQAGGYGFVISDWNMPNMDGLELLKTIRADGAMSALPVLMVTAEAKKENIIAAAQAGASGYVVKPFTAATLEEKLNKIFEKLGM [F14N]	-2.9	1.8	4.5	8.1
MADKELKFLVVDDNSTMRRIVRNLLKELGFNNVEEAEDGVDALNKLQAGGYGFVISDWNMPNMDGLELLKTIRADGAMSALPVLMVTAEAKKENIIAAAQAGASGYVVKGFTAATLEEKLNKIFEKLGM [P110G F14N]	-1.1	1.6	3.94	6.3
